# Laboratory results from the RNAGym collection of RNA variant scans (doi:10.7554/elife.80360).
# B1: HDV Ribozyme (parent)
# chain: GGCCGGCAUGGUCCCAGCCUCCUCGCUGGCGCCGGCUGGGCAACAUUCCGAGGGGACCGUCCCCUCGGUAAUGGCGAAUGGGACCCA
# Variants of: B1
# Test: self-cleavage, relative activity (ratio to wild type); higher = more cleavage; co-transcriptional
row,Variant,self-cleavage
1,A42G G59U,0.608
2,C44U U72C,0.779
3,C44A A78C,0.0811
4,C44A G81C,0.178
5,C44A G81A,0.125
6,A45G G53A,0.991
7,A45G A87U,0.911
8,C44G A78U,0.19
9,C44A G74C,0.237
10,C44G G67C,0.755
11,A42G C44U,0.639
12,A45C A87G,0.554
13,A43G A87G,0.634
14,A43G A87C,0.688
15,A43U U65G,0.302
16,A43C G50A,0.469
17,A42U C48G,0.646
18,A42U G73A,0.403
19,A45C A70G,0.655
20,A45C A70C,0.615
21,A45C A70U,0.508
22,A45G C66G,0.811
23,A45G C66U,0.92
24,A45G C66A,0.812

row,Variant,self-cleavage
1,A43U C58U,0.462
2,A43U C84U,0.151
3,A42C U69G,0.246
4,A42C U69C,0.399
5,A43G U47C,0.748
6,A42G G68C,0.271
7,A42G A71C,0.151
8,A45C U46A,0.499
9,A43C A77C,0.0923
10,A43C A77U,0
11,C44U C62U,0.443
12,A43G A70G,0.914
13,C44U G73A,0.946
14,A43U C86U,0.563
15,A43U C86G,0.325
16,A42G G81U,0.0346
17,A45G A83G,0.95
18,A45G C63U,0.956
19,A45G C63G,0.739
20,A43U A77C,0.0519
21,A42C U65G,0.831
22,A42C U65A,0.155
23,A42G C61G,0.831
24,A42G C61U,0.656

row,Variant,self-cleavage
1,A42G U79C,0.0386
2,A42G U79G,0.359
3,C44A A87G,0.649
4,A42U C85A,0.415
5,A45C U79C,0.0791
6,A45C U79G,0.293
7,A42G U47A,0.391
8,A42U G55U,0.597
9,A42U G55A,0.604
10,A43U U79G,0.162
11,A43U U79A,0.122
12,A42G G80U,0.095
13,A45G A51U,0.944
14,C44A U46G,0.785
15,C44A U46A,0.677
16,A42U G74A,0.343
17,A42U G74C,0.17
18,A42C U46C,0.214
19,C44G G73C,0.655
20,A43U U69C,0.494
21,A43U G68U,0.299
22,C44A C66U,0.809
23,A42U C64U,0.594
24,C44A G55U,0.698

row,Variant,self-cleavage
1,C44G A51G,0.653
2,A42G C84U,0.525
3,A42G C84A,0.554
4,A43G A83U,0.266
5,A42G G73C,0
6,A45G A56C,1.3
7,A42U U60C,0.554
8,A42G C75A,0.0554
9,A43C U72A,0.151
10,A43C U72G,0.293
11,A43G U46G,0.499
12,A43G U46C,0.443
13,A45G C58A,1.18
14,A43G C75G,0.161
15,A43G C75A,0.172
16,A43G C75U,0.0573
17,A42U C49U,0.502
18,A45C G74C,0.0594
19,A45C G74A,0.354
20,A43U A83U,0.125
21,A43U A83C,0.0923
22,C44G G55A,0.787
23,A42U C44G,0.464
24,A42C G76U,0.734

row,Variant,self-cleavage
1,A43C C57A,0.785
2,A45C U47C,0.598
3,C44A G76C,0.614
4,C44A G76U,0.767
5,A45C G80C,0.0504
6,A43U C63G,0.394
7,A43C C44U,0.923
8,A43C C44G,0.458
9,A45G G50A,0.707
10,A43G G81U,0.138
11,A42C G73A,0.245
12,A45G G52C,1.01
13,A45G G52A,0.875
14,C44U C58U,0.755
15,A43C A87U,0.59
16,A42G G52U,0.501
17,C44G G53C,0.733
18,A43C G67C,0.243
19,A42G U46C,0.369
20,A42G C58A,0.655
21,A42G A77U,0
22,A42G C62G,0.469
23,A43C C84G,0.237
24,A43C C84A,0.332

row,Variant,self-cleavage
1,A43G G76A,0.391
2,C44G G52A,0.636
3,C44G G52U,0.727
4,A43C U69A,0.532
5,C44U C75U,0.157
6,C44U C75G,0.106
7,A42G A51G,0.571
8,A45C U72A,0.89
9,A45C U72G,1.11
10,C44G C66G,0.554
11,A45C G73U,0.193
12,A45C G73A,0.528
13,A42C G81C,0.0978
14,A42G C64A,0.302
15,A42G C64G,0.332
16,A45C C58A,0.519
17,A45C C58U,0.831
18,A42U A43G,0.201
19,A43G G74A,0.724
20,A43U U46A,0.653
21,A43C C49G,0.287
22,C44G A70U,0.804
23,C44A C63A,0.882
24,A45G C62A,0.975

row,Variant,self-cleavage
1,A43G G73U,0.0755
2,A43G G73C,0.256
3,A43C G80C,0.194
4,A43C G80U,0.0825
5,C44G A71U,0.962
6,C44U G54U,0.799
7,C44U G54C,0.694
8,C44A A70U,0.571
9,C44A A70C,0.465
10,C44A A70G,0.703
11,A43C G73C,0.309
12,C44A A71G,0.427
13,C44U C63U,0.806
14,A42G G76A,0.631
15,A42U C84G,0.198
16,C44A C86U,1.01
17,C44A C86A,1.08
18,A43G G82U,0.189
19,A43G G82A,0.138
20,C44U U79G,0.727
21,A42U U47G,0.615
22,A45C A77G,0.534
23,A45C A77U,0.142
24,C44A G67A,0.415

row,Variant,self-cleavage
1,C44A G67U,0.658
2,A42U U65G,0.457
3,A42U A45U,0.554
4,C44G C64U,0.686
5,A43G A56U,0.688
6,A43G A56C,0.587
7,C44U C84U,0.516
8,A42U U79G,0.222
9,A42U U79C,0.0216
10,A42U U79A,0.145
11,A43U C48A,0.424
12,A43U C61A,0.532
13,C44A G82C,0.0773
14,C44A G82A,0.153
15,A43U C57G,0.674
16,A45C A56C,0.712
17,A43G C49U,0.469
18,A43C C58A,0.394
19,A43C A56U,0.584
20,A43C G76A,0.554
21,C44U U60C,0.872
22,A45G G54C,0.65
23,C44G G80U,0.0966
24,A43C G55A,0.511

row,Variant,self-cleavage
1,C44U C66A,0.677
2,C44U C66G,0.895
3,A45C G68U,0.604
4,C44G C49G,0.68
5,A45C G67C,0.731
6,A42U U72C,0.508
7,A42U U72A,0.511
8,A45C A83U,0.356
9,A45C A83C,0.0615
10,A42G C48U,0.525
11,A43U U72C,0.155
12,C44A U79G,0.128
13,A43G C86A,0.712
14,A43G C86G,0.727
15,C44A A56G,0.875
16,A43U A45C,0.877
17,A43U C62A,0.499
18,A45G C86U,0.806
19,A42U A87G,0.389
20,C44U G81A,0.224
21,C44A C57U,0.582
22,A43G C85G,0.791
23,C44G G81C,0.306
24,C44U A45U,0.787

row,Variant,self-cleavage
1,C44U U69A,0.787
2,C44U U69C,0.814
3,A43C G68U,0.264
4,A43G C57G,0.356
5,A43G C57A,0.628
6,A43G C57U,0.974
7,A43G G52C,0.796
8,A43G G52A,0.577
9,A42G C57G,0.453
10,C44G G59A,0.636
11,A43U A87U,0.425
12,C44A G52C,0.902
13,C44A C58U,0.689
14,C44U G67C,0.755
15,A45C A51U,0.72
16,A42U G76U,0.745
17,A42G U69A,0.554
18,A42G U69G,0.554
19,A42U A77G,0.464
20,A42U A77U,0.0739
21,A43G U69G,0.867
22,A43G U69A,0.623
23,A42U G81A,0.0378
24,A42U G81C,0.0426

row,Variant,self-cleavage
1,C44U C85G,0.673
2,A43G C66U,0.672
3,A43G C66G,0.404
4,C44G U65C,0.597
5,C44G U65G,0.688
6,A45C C48G,0.369
7,A45C C85G,0.609
8,A43C G53C,0.63
9,A43C G53U,0.425
10,A43C G53A,0.554
11,A43G A78G,0.119
12,A43C C86U,0.649
13,A42G G53U,0.817
14,A42G G53A,0.496
15,A43U G59C,0.502
16,A43G A71U,0.95
17,A43G A71C,1.01
18,C44A C85A,0.656
19,C44A C85U,0.727
20,A45C C62U,0.895
21,C44U C57A,0.672
22,A43C C61U,0.434
23,A43C C61A,0.306
24,A43C C61G,0.359

row,Variant,self-cleavage
1,A42G G50A,0.446
2,A42G G67U,0.565
3,C44U G76C,0.725
4,C44U G76A,0.87
5,C44A A51U,1.13
6,C44A A51G,0.898
7,C44G C58G,0.665
8,A42G G55A,0.485
9,A42G G55C,0.675
10,A43G U72A,0.453
11,C44U A87C,0.618
12,A43C A70C,0.35
13,C44U G53C,0.658
14,C44U G53U,0.831
15,A45C G76U,1.01
16,C44U A56U,0.748
17,A42C U72C,0.107
18,A43C U47A,0.506
19,A42G U65C,0.643
20,A43G U65G,0.575
21,A45C G50C,0.504
22,A43G C48G,0.719
23,A43G C48U,0.587
24,A45C C64G,0.649

row,Variant,self-cleavage
1,A43U C85U,0.658
2,A43U C85A,0.499
3,C44U C48A,0.779
4,C44A U65C,0.804
5,C44A U65G,0.85
6,C44G C63G,0.441
7,A43U C75G,0.0639
8,A43G C58U,0.415
9,A42U C75A,0.0405
10,C44U A78C,0.113
11,C44U U47A,0.743
12,C44A U60G,0.554
13,C44A U60A,0.867
14,C44U A77G,0.923
15,A42U C86G,0.519
16,A42U C86A,0.492
17,A43U G55U,0.619
18,A42U A56G,0.306
19,A42U G80A,0.16
20,A43U G73U,0.141
21,C44G A77U,0.0978
22,A43U C66A,0.415
23,A43U G50U,0.458
24,A43G G50A,0.502

row,Variant,self-cleavage
1,A43G G50C,0.739
2,A43G U79A,0.192
3,A43C G54A,0.415
4,A43U A70G,1.05
5,A43U A70U,0.59
6,A43U A70C,0.554
7,C44G G50A,0.657
8,C44G U46A,0.9
9,C44A G68A,0.704
10,C44A U69A,0.727
11,C44A U69C,0.677
12,A45G G59A,1.06
13,A42G A78G,0
14,C44G G68C,0.475
15,C44G U79A,0.388
16,A43C A78U,0.0415
17,A45C C61G,0.6
18,A45G C85U,1.06
19,C44U G80A,0.125
20,C44U G80U,0.148
21,A45G C57G,1.01
22,C44A C48A,0.88
